Experimental data published in PMC12775002, “Human O-GlcNAcase catalytic-stalk dimer anchors flexible histone binding domains” (Communications Chemistry, 2025).

B1: histone H4 1-19 peptide, K5,8,12,16Ac (peptide, UniProt P62805 2-20, looked up)
peptide: SGRGKGGKGLGKGGAKRHR
modifications: acetyl-lysine at K5, K8, K12 and K16
notes: histone H4 tail peptide, residues 1-19, on the array; also called H4 1-19 K^5,8,12,16Ac; H4K^5,8,12,16Ac; source: bought: Active Motif MODified Histone Peptide Array (peptide on the array)
B2: human O-GlcNAcase, long isoform (OGA-L), full length (enzyme, UniProt O60502 1-916, looked up)
chain: MVQKESQATLEERESELSSNPAASAGASLEPPAAPAPGEDNPAGAGGAAVAGAAGGARRFLCGVVEGFYGRPWVMEQRKELFRRLQKWELNTYLYAPKDDYKHRMFWREMYSVEEAEQLMTLISAAREYEIEFIYAISPGLDITFSNPKEVSTLKRKLDQVSQFGCRSFALLFDDIDHNMCAADKEVFSSFAHAQVSITNEIYQYLGEPETFLFCPTEYCGTFCYPNVSQSPYLRTVGEKLLPGIEVLWTGPKVVSKEIPVESIEEVSKIIKRAPVIWDNIHANDYDQKRLFLGPYKGRSTELIPRLKGVLTNPNCEFEANYVAIHTLATWYKSNMNGVRKDVVMTDSEDSTVSIQIKLENEGSDEDIETDVLYSPQMALKLALTEWLQEFGVPHQYSSRQVAHSGAKASVVDGTPLVAAPSLNATTVVTTVYQEPIMSQGAALSGEPTTLTKEEEKKQPDEEPMDMVVEKQEETDHKNDNQILSEIVEAKMAEELKPMDTDKESIAESKSPEMSMQEDCISDIAPMQTDEQTNKEQFVPGPNEKPLYTAEPVTLEDLQLLADLFYLPYEHGPKGAQMLREFQWLRANSSVVSVNCKGKDSEKIEEWRSRAAKFEEMCGLVMGMFTRLSNCANRTILYDMYSYVWDIKSIMSMVKSFVQWLGCRSHSSAQFLIGDQEPWAFRGGLAGEFQRLLPIDGANDLFFQPPPLTPTSKVYTIRPYFPKDEASVYKICREMYDDGVGLPFQSQPDLIGDKLVGGLLSLSLDYCFVLEDEDGICGYALGTVDVTPFIKKCKISWIPFMQEKYTKPNGDKELSEAEKIMLSFHEEQEVLPETFLANFPSLIKMDIHKKVTDPSVAKSMMACLLSSLKANGSRGAFCEVRPDDKRILEFYSKLGCFEIAKMEGFPKDVVILGRSL
notes: human O-GlcNAcase (OGA), long isoform OGA-L, 103 kDa, full length, codon optimized; also called hOGA; full-length recombinant OGA; source: E. coli TOP10 (pBAD), purified (Talon resin for the arrays; HisTrap and size-exclusion chromatography for cryo-EM); not shown: His6, N-terminal, kept
B3: histone H4 1-19 peptide, K8,12,16Ac (peptide, UniProt P62805 2-20, looked up)
peptide: SGRGKGGKGLGKGGAKRHR
modifications: acetyl-lysine at K8, K12 and K16
notes: histone H4 tail peptide, residues 1-19, on the array; also called H4 1-19 K^8,12,16Ac; H4K^8,12,16Ac; source: bought: Active Motif MODified Histone Peptide Array (peptide on the array)

Key:
[1] = biological target: B2; test: peptide or protein array; Active Motif MODified histone peptide array (384 modified histone peptides in duplicate, immobilised); 100 nM protein in 20 mM Tris pH 7.5, 1 mM DTT, 0.5 mg/mL BSA, RT 1 h; detected with anti-His6 antibody; 3 or more arrays; details: both partners purified
[2] = biological target: the molecule itself; test: cryo-EM structure; apo full-length OGA-L, about 0.5 ug/ul in 20 mM Tris, 150 mM NaCl; Titan Krios 300 kV
[3] = biological target: recombinant mononucleosome with the H3K36Me3 modification; test: pull-down; 500 nM biotinylated mononucleosomes with 0, 25, 50, 100, 250 and 500 nM full-length OGA in OGA assay buffer, overnight 4 °C; captured on streptavidin magnetic beads; bound OGA-L quantified by immunoblot (anti-MGEA5); saturation plot and Scatchard analysis
[4] = biological target: recombinant mononucleosome with the H4K5,8,12,16Ac modification (UniProt P62805); test: as above

| binding result [1] | Kd [3] | Kd [4] | Binder | binding result [2] |
| --- | --- | --- | --- | --- |
| binds | – | – | B1 | – |
| – | 290 nM | 220 nM | B2 | binds |
| binds | – | – | B3 | – |
